# Tests used:
# Human_IgG [1] = experiment: microarray control spot; secondary antibody after B266-1 0.04 ug/mL
# Full-length mouse IgG [2] = experiment: as above
# Human_IgG [3] = experiment: microarray control spot; secondary antibody after B264 5 ug/mL
# Full-length mouse IgG [4] = experiment: as above
# Human_IgG [5] = experiment: microarray control spot; secondary antibody after B266-1 0.2 ug/mL
# Full-length mouse IgG [6] = experiment: as above
# Human_IgG [7] = experiment: microarray control spot; secondary antibody after B264 0.04 ug/mL
# Full-length mouse IgG [8] = experiment: as above
# Human_IgG [9] = experiment: microarray control spot; secondary antibody after B266-1 0.0016 ug/mL
# Full-length mouse IgG [10] = experiment: as above
# Human_IgG [11] = experiment: microarray control spot; secondary antibody after B266-1 1 ug/mL
# Full-length mouse IgG [12] = experiment: as above
# Human_IgG [13] = experiment: microarray control spot; secondary antibody after B266-1, head 0.08 ug (text 0.008 ug/mL)
# Full-length mouse IgG [14] = experiment: as above
# Human_IgG [15] = experiment: microarray control spot; secondary antibody only
# Full-length mouse IgG [16] = experiment: microarray control spot; secondary antibody only
# Human_IgG [17] = experiment: microarray control spot; secondary antibody after B264, head 0.08 ug (text 0.008 ug/mL)
# Full-length mouse IgG [18] = experiment: as above
# Peptide_092 (human) = biological target: T1, Peptide_092 (human); experiment: peptide microarray, secondary antibody only
# T1 sequence (peptide): PTFQFFKKGQKVGEF
# Peptide_051 (human) = biological target: T2, Peptide_051 (human); experiment: peptide microarray, secondary antibody only
# T2 sequence (peptide): PCKMIKPFFHSLSEK
# Peptide_044 (human) = biological target: T3, Peptide_044 (human); experiment: peptide microarray, secondary antibody only
# T3 sequence (peptide): FSATWCGPCKMIKPF
# Peptide_096 (human) = biological target: T4, Peptide_096 (human); experiment: peptide microarray, secondary antibody only
# T4 sequence (peptide): FFKKGQKVGEFSGAN
# Peptide_097 (human) = biological target: T5, Peptide_097 (human); experiment: peptide microarray, secondary antibody only
# T5 sequence (peptide): FKKGQKVGEFSGANK
# Human_IgG [19] = experiment: microarray control spot; secondary antibody after B264 0.0016 ug/mL
# Full-length mouse IgG [20] = experiment: as above
# Human_IgG [21] = experiment: microarray control spot; secondary antibody after B264 1 ug/mL
# Full-length mouse IgG [22] = experiment: as above
# Human_IgG [23] = experiment: microarray control spot; secondary antibody after B264 0.2 ug/mL
# Full-length mouse IgG [24] = experiment: as above
# Human_IgG [25] = experiment: microarray control spot; secondary antibody after B266-1 5 ug/mL
# Full-length mouse IgG [26] = experiment: as above
substance,measurement,setting,value
fluorescence-labeled secondary anti-mouse-IgG antibody (anti-mouse IgG(H+L) (Thermo 84545)),signal (blank-control = 1),Human_IgG [1],49.7
same,signal (blank-control = 1),Full-length mouse IgG [2],79.7
same,signal (blank-control = 1),Human_IgG [3],6.7
same,signal (blank-control = 1),Full-length mouse IgG [4],7.16
same,signal (blank-control = 1),Human_IgG [5],49.6
same,signal (blank-control = 1),Full-length mouse IgG [6],71.4
same,signal (blank-control = 1),Human_IgG [7],48.1
same,signal (blank-control = 1),Full-length mouse IgG [8],69.5
same,signal (blank-control = 1),Human_IgG [9],35.4
same,signal (blank-control = 1),Full-length mouse IgG [10],84.8
same,signal (blank-control = 1),Human_IgG [11],52.8
same,signal (blank-control = 1),Full-length mouse IgG [12],65.4
same,signal (blank-control = 1),Human_IgG [13],47.9
same,signal (blank-control = 1),Full-length mouse IgG [14],74.6
same,signal (blank-control = 1),Human_IgG [15],46.6
same,signal (blank-control = 1),Full-length mouse IgG [16],54.6
same,signal (blank-control = 1),Human_IgG [17],52.6
same,signal (blank-control = 1),Full-length mouse IgG [18],76.3
same,signal (blank-control = 1),Peptide_092 (human),2.28
same,signal (blank-control = 1),Peptide_051 (human),0.47
same,signal (blank-control = 1),Peptide_044 (human),1.73
same,signal (blank-control = 1),Peptide_096 (human),1.18
same,signal (blank-control = 1),Peptide_097 (human),1.34
same,signal (blank-control = 1),Human_IgG [19],45.7
same,signal (blank-control = 1),Full-length mouse IgG [20],74.5
same,signal (blank-control = 1),Human_IgG [21],20.8
same,signal (blank-control = 1),Full-length mouse IgG [22],24.5
same,signal (blank-control = 1),Human_IgG [23],36.3
same,signal (blank-control = 1),Full-length mouse IgG [24],46
same,signal (blank-control = 1),Human_IgG [25],35.8
same,signal (blank-control = 1),Full-length mouse IgG [26],47

# Source: patent US20240192215A1
